For this test, the target named is α-synuclein (UniProt P37840 1-140). The experiment in a line: cell-based or functional assay.

Non-standard residues stand in square brackets, D forms with d.
Further: test concentration or dose not given here.

B1: ZP-0170 (peptide)
peptide: Ac-[dH][dH][dV][dI][dV][dT]-NH2
SMILES: CC[C@@H](C)[C@@H](NC(=O)[C@H](NC(=O)[C@@H](Cc1c[nH]cn1)NC(=O)[C@@H](Cc1c[nH]cn1)NC(C)=O)C(C)C)C(=O)N[C@@H](C(=O)N[C@@H](C(N)=O)[C@H](C)O)C(C)C
As to B1, the “% decrease in ThT fluorescence” value amounted to 24.5%, the “% decrease in rate of aggregation” value was 29.3% and the “% increase in Lag phase” value is 29.4%.

B2: ZP-0159 (peptide)
peptide: Ac-[dH][dH][dV][dV][dV][dA]-NH2
SMILES: CC(=O)N[C@H](Cc1c[nH]cn1)C(=O)N[C@H](Cc1c[nH]cn1)C(=O)N[C@@H](C(=O)N[C@@H](C(=O)N[C@@H](C(=O)N[C@H](C)C(N)=O)C(C)C)C(C)C)C(C)C
For B2, the “% decrease in ThT fluorescence” value worked out at 19.8%, the “% decrease in rate of aggregation” value amounted to 18.6% and the “% increase in Lag phase” value is 36.6%.

B3: ZP-0180 (peptide)
peptide: Ac-[dH][dH][dT][dV][dV][dA]-NH2
SMILES: CC(=O)N[C@H](Cc1c[nH]cn1)C(=O)N[C@H](Cc1c[nH]cn1)C(=O)N[C@@H](C(=O)N[C@@H](C(=O)N[C@@H](C(=O)N[C@H](C)C(N)=O)C(C)C)C(C)C)[C@H](C)O
With B3, the “% decrease in ThT fluorescence” value stood at 19.8%, the “% decrease in rate of aggregation” value was found to be 18.4% and the “% increase in Lag phase” value is 30.3%.

B4: ZP-0161 (peptide)
peptide: Ac-[dH][dH][dV][dK][dV][dA]-NH2
SMILES: CC(=O)N[C@H](Cc1c[nH]cn1)C(=O)N[C@H](Cc1c[nH]cn1)C(=O)N[C@@H](C(=O)N[C@H](CCCCN)C(=O)N[C@@H](C(=O)N[C@H](C)C(N)=O)C(C)C)C(C)C
For B4, the “% decrease in ThT fluorescence” value is -5.9%, the “% decrease in rate of aggregation” value was 2.3% and the “% increase in Lag phase” value came to 19.7%.

B5: ZP-0169 (peptide)
peptide: Ac-[dH][dH][dV][dI][dV][dV]-NH2
SMILES: CC[C@@H](C)[C@@H](NC(=O)[C@H](NC(=O)[C@@H](Cc1c[nH]cn1)NC(=O)[C@@H](Cc1c[nH]cn1)NC(C)=O)C(C)C)C(=O)N[C@@H](C(=O)N[C@@H](C(N)=O)C(C)C)C(C)C
For B5, the “% decrease in ThT fluorescence” value is -0.5%, the “% decrease in rate of aggregation” value was -13.3% and the “% increase in Lag phase” value turned out to be 26.1%.

B6: ZP-0171 (peptide)
peptide: Ac-[dH][dH][dV][dI][dV][dY]-NH2
SMILES: CC[C@@H](C)[C@@H](NC(=O)[C@H](NC(=O)[C@@H](Cc1c[nH]cn1)NC(=O)[C@@H](Cc1c[nH]cn1)NC(C)=O)C(C)C)C(=O)N[C@@H](C(=O)N[C@H](Cc1ccc(O)cc1)C(N)=O)C(C)C
On to B6, for which the “% decrease in ThT fluorescence” value was found to be 13.9%, the “% decrease in rate of aggregation” value turned out to be 13.2% and the “% increase in Lag phase” value was 43.6%.

B7: ZP-0179 (peptide)
peptide: Ac-[dH][dH][dT][dI][dV][dK]-NH2
SMILES: CC[C@@H](C)[C@@H](NC(=O)[C@H](NC(=O)[C@@H](Cc1c[nH]cn1)NC(=O)[C@@H](Cc1c[nH]cn1)NC(C)=O)[C@H](C)O)C(=O)N[C@@H](C(=O)N[C@H](CCCCN)C(N)=O)C(C)C
For B7, the “% decrease in ThT fluorescence” value came to 0.6%, the “% decrease in rate of aggregation” value was -0.6% and the “% increase in Lag phase” value came to 30.4%.

B8: ZP-0168 (peptide)
peptide: Ac-[dH][dH][dV][dI][dV][dP]-NH2
SMILES: CC[C@@H](C)[C@@H](NC(=O)[C@H](NC(=O)[C@@H](Cc1c[nH]cn1)NC(=O)[C@@H](Cc1c[nH]cn1)NC(C)=O)C(C)C)C(=O)N[C@@H](C(=O)N1CCC[C@@H]1C(N)=O)C(C)C
As for B8, the “% decrease in ThT fluorescence” value was -8.6%, the “% decrease in rate of aggregation” value was -5.4% and the “% increase in Lag phase” value worked out at 29.8%.

B9: ZP-0172 (peptide)
peptide: Ac-[dH][dH][dV][dI][dV][dW]-NH2
SMILES: CC[C@@H](C)[C@@H](NC(=O)[C@H](NC(=O)[C@@H](Cc1c[nH]cn1)NC(=O)[C@@H](Cc1c[nH]cn1)NC(C)=O)C(C)C)C(=O)N[C@@H](C(=O)N[C@H](Cc1c[nH]c2ccccc12)C(N)=O)C(C)C
On to B9, for which the “% decrease in ThT fluorescence” value was -1.7%, the “% decrease in rate of aggregation” value was 6.9% and the “% increase in Lag phase” value is 28.1%.

B10: ZP-0175 (peptide)
peptide: Ac-[dH][dH][dT][dI][dV][dV]-NH2
SMILES: CC[C@@H](C)[C@@H](NC(=O)[C@H](NC(=O)[C@@H](Cc1c[nH]cn1)NC(=O)[C@@H](Cc1c[nH]cn1)NC(C)=O)[C@H](C)O)C(=O)N[C@@H](C(=O)N[C@@H](C(N)=O)C(C)C)C(C)C
With B10, the “% decrease in ThT fluorescence” value was determined as 21.9%, the “% decrease in rate of aggregation” value turned out to be 16.8% and the “% increase in Lag phase” value was 89.7%.

B11: ZP-0186 (peptide)
peptide: Ac-[dH][dH][dT][dL][dV][dV]-NH2
SMILES: CC(=O)N[C@H](Cc1c[nH]cn1)C(=O)N[C@H](Cc1c[nH]cn1)C(=O)N[C@@H](C(=O)N[C@H](CC(C)C)C(=O)N[C@@H](C(=O)N[C@@H](C(N)=O)C(C)C)C(C)C)[C@H](C)O
As for B11, the “% decrease in ThT fluorescence” value was found to be 30.7%, the “% decrease in rate of aggregation” value came out at 29.7% and the “% increase in Lag phase” value came out at 16.1%.

B12: ZP-0181 (peptide)
peptide: Ac-[dH][dH][dT][dL][dV][dA]-NH2
SMILES: CC(=O)N[C@H](Cc1c[nH]cn1)C(=O)N[C@H](Cc1c[nH]cn1)C(=O)N[C@@H](C(=O)N[C@H](CC(C)C)C(=O)N[C@@H](C(=O)N[C@H](C)C(N)=O)C(C)C)[C@H](C)O
Consider B12, for which the “% decrease in ThT fluorescence” value was determined as 22.8%, the “% decrease in rate of aggregation” value was -1.2% and the “% increase in Lag phase” value was 29.4%.

B13: ZP-0162 (peptide)
peptide: Ac-[dH][dH][dV][dE][dV][dA]-NH2
SMILES: CC(=O)N[C@H](Cc1c[nH]cn1)C(=O)N[C@H](Cc1c[nH]cn1)C(=O)N[C@@H](C(=O)N[C@H](CCC(=O)O)C(=O)N[C@@H](C(=O)N[C@H](C)C(N)=O)C(C)C)C(C)C
In the case of B13, the “% decrease in ThT fluorescence” value worked out at 6.3%, the “% decrease in rate of aggregation” value stood at 6.6% and the “% increase in Lag phase” value stood at 33.4%.

B14: ZP-0158 (peptide)
peptide: Ac-[dH][dH][dV][dI][dV][dA]-NH2
SMILES: CC[C@@H](C)[C@@H](NC(=O)[C@H](NC(=O)[C@@H](Cc1c[nH]cn1)NC(=O)[C@@H](Cc1c[nH]cn1)NC(C)=O)C(C)C)C(=O)N[C@@H](C(=O)N[C@H](C)C(N)=O)C(C)C
Consider B14, for which the “% decrease in ThT fluorescence” value came out at 15.1%, the “% decrease in rate of aggregation” value worked out at 18.4% and the “% increase in Lag phase” value came to 32.5%.

(Values after US8290713 (LONZA BIOLOGICS, dated 2012).)
